Values belong to the molecule of their own block, whether it stands above or below them.
Target: type II receptors on the cell surface of INA6 cells (human (endogenous in INA6))

concentration for 50% rescue (IC50) from inhibition of INA6 cell proliferation induced by 10 nM Activin A, WST-1; competes with Activin A for the type II receptors: 62.5 nM
Molecule: BMP2-L51PL100KN102D (ligand)

concentration for 50% rescue (IC50) from inhibition of INA6 cell proliferation induced by 10 nM Activin A, WST-1; competes with Activin A for the type II receptors: 250 nM
B1: Recombinant human BMP2 (wildtype) (ligand)
chain: QAKHKQRKRLKSSCKRHPLYVDFSDVGWNDWIVAPPGYHAFYCHGECPFPLADHLNSTNHAIVQTLVNSVNSKIPKACCVPTELSAISMLYLDENEKVVLKNYQDMVVEGCGCR

— publication PMC5425150
